Assay results from patent US20110104143.

Legend:
[1] = biological target: DDX3 (endogenous, full-length human DDX3 in tumor cell lysates), O00571
DDX3 (endogenous, full-length human DDX3 in tumor cell lysates), O00571, sequence (O00571 whole entry, looked up): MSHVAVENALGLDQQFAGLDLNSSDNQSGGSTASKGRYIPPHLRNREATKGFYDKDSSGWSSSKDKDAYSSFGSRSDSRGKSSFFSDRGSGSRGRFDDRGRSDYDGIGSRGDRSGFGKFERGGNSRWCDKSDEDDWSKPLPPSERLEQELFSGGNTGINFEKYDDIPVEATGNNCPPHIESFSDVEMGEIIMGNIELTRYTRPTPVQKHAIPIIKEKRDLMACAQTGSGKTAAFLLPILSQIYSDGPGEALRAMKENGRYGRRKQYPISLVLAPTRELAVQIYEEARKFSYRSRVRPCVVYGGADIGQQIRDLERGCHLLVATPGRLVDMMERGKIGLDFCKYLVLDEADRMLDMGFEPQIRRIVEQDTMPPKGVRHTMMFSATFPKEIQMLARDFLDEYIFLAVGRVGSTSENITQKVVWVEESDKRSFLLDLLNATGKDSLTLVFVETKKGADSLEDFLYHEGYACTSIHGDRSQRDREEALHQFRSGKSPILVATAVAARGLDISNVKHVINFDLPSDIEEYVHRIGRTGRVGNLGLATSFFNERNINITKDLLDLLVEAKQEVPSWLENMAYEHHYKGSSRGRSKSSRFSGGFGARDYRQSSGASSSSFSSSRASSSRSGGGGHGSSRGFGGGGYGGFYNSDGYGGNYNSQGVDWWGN

cIAP1, Q13490, sequence (Q13490 whole entry): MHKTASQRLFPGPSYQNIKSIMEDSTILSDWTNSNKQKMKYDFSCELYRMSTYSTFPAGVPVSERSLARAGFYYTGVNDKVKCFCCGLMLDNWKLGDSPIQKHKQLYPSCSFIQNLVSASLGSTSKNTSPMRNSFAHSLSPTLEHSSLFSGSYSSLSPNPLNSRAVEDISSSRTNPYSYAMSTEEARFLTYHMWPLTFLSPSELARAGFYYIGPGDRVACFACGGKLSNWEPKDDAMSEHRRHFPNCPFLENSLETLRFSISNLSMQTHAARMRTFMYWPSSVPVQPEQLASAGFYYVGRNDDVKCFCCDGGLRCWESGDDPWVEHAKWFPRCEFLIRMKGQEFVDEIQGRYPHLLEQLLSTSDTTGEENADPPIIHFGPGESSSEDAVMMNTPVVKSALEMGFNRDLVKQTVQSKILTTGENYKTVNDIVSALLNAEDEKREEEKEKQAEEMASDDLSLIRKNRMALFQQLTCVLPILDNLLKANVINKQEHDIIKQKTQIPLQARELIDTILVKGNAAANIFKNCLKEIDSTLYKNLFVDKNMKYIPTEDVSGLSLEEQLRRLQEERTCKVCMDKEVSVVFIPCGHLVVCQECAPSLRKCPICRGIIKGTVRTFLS

Protein	cleavage of DR5-associated DDX3 by active caspase, Western blot with anti-DDX3 antibody [1]	caspase-8 protease activity on the fluorogenic substrate Ac-IETD-AMC (cIAP1, Q13490)
Active Caspase-2 (protein) GPVCLQVKPCTPEFYQTHFQLAYRLQSRPRGLALVLSNVHFTGEKELEFRSGGDVDHSTLVTLFKLLGYDVHVLCDQTAQEMQEKLQNFAQLPAHRVTDSCIVALLSHGVEGAIYGVDGKLLQLQEVFQLFDNANCPSLQNKPKMFFIQACRGDETDRGVDQQDGKNHAGSPGCEESDAGKEKLPKMRLPTRSDMICGYACLKGTAAMRNTKRGSWYIEALAQVFSERACDMHVADMLVKVNALIKDREGYAPGTEFHRCKEMSEYCSTLCRHLYLFPGHPPT	caspase-2 exhibited similar protease potential in both cells	–
Active Caspase-8 (protein) SESQTLDKVYQMKSKPRGYCLIINNHNFAKAREKVPKLHSIRDRNGTHLDAGALTTTFEELHFEIKPHDDCTVEQIYEILKIYQLMDHSNMDCFICCILSHGDKGIIYGTDGQEAPIYELTSQFTGLKCPSLAGKPKVFFIQACQGDNYQKGIPVETDSEEQPYLEMDLSSPQTRYIPDEADFLLGMATVNNCVSYRNPAEGTWYIQSLCQSLRERCPRGDDILTILTEVNYEVSNKDDKKNMGKQMPQPTFTLRKKLVFPSD	DDX3 cleavage by caspase-8 in resistant cells was highly attenuated compared to sensitive cells	purified cIAP1 also suppressed caspase-8 protease activity completely
